For one protein, Km and kcat results are on record in PMC9205463.

A word on the Km: it is the concentration of substrate that gives half-maximal velocity. What is called kcat is the number of substrate molecules converted per active site and unit of time at saturation.

Substrate in this data set: Nc1ncnc2c1ncn2[C@@H]1O[C@H](COP(=O)(O)OP(=O)(O)OP(=O)(O)O)[C@@H](O)[C@H]1O
Kind of data set: purified protein. The note with it: M13 ssDNA effector; ATP 0-4 mM.

B1: DDX41 (Homo sapiens) (protein)
chain: MEESEPERKRARTDEVPAGGSRSEAEDEDDEDYVPYVPLRQRRQLLLQKLLQRRRKGAAEEEQQDSGSEPRGDEDDIPLGPQSNVSLLDQHQHLKEKAEARKESAKEKQLKEEEKILESVAEGRALMSVKEMAKGITYDDPIKTSWTPPRYVLSMSEERHERVRKKYHILVEGDGIPPPIKSFKEMKFPAAILRGLKKKGIHHPTPIQIQGIPTILSGRDMIGIAFTGSGKTLVFTLPVIMFCLEQEKRLPFSKREGPYGLIICPSRELARQTHGILEYYCRLLQEDSSPLLRCALCIGGMSVKEQMETIRHGVHMMVATPGRLMDLLQKKMVSLDICRYLALDEADRMIDMGFEGDIRTIFSYFKGQRQTLLFSATMPKKIQNFAKSALVKPVTINVGRAGAASLDVIQEVEYVKEEAKMVYLLECLQKTPPPVLIFAEKKADVDAIHEYLLLKGVEAVAIHGGKDQEERTKAIEAFREGKKDVLVATDVASKGLDFPAIQHVINYDMPEEIENYVHRIGRTGRSGNTGIATTFINKACDESVLMDLKALLLEAKQKVPPVLQVLHCGDESMLDIGGERGCAFCGGLGHRITDCPKLEAMQTKQVSNIGRKDYLAHSSMDF
Consider B1, for which the Km is 200 µM and the kcat was 953.6 ± 45.5 s⁻¹.
